Patent US9962427B2, “Treatment of right ventricular dysfunction due to pressure overload” (OTTAWA HOSPITAL RESEARCH INSTITUTE, priority 2016, dated 2018)

Tests used:
cardiomyocytes = test system: cardiomyocytes
Experimental: FIG. 7B Quantitation of cell viability analysis as shown in (A). FIG. 7C Quantification of PI cell viability FACS analysis following a 24 hrs treatment of cardiomyocytes with H2O2 in the presence or absence of hCT1. Pre-treatment with PI3K inhibitor (LY294002, 50 μM) before H2O2 was also tested.
Cardiomyocytes were treated with control serum-free media or with H2O2 (300 μM, 1 hr) to induce cell death in the presence or absence of hCT1 (0.5 nM). After 24 hrs, cells were incubated with the cell viability marker Propidium Iodide (PI) (1 μg/mL) and analyzed by FACS (Ex: 535 nm, Em: 617 nm) for viable cells; i.e. cells inside the gated region of the side scatter (SS) versus PI plot (FIG. 7A). […] The PI3K pathway is a critical feature of physiological cardiac adaptive compensation and is a key protective feature distinguishing it from pathological adaptive compensation. Therefore, cardiomyocytes were pre-treated with a PI3K inhibitor (LY294002, 50 μM) before CT-1/H2O2 treatment.

P19 cells = assay: P19 cardiac differentiation (cTnT immunofluorescence, beating clusters, immunoblot); assay type: cell-based, mouse
Experimental: FIG. 9A Schematic for cardiac differentiation of pluripotent P19 cells. FIG. 9B Immunofluorescence results for the cardiac-specific marker Troponin T (cTnT) in P19 cardiac cells at day 7 of differentiation in the presence of varying doses of hCT1 ranging from 0-500 ng/mL (0-25 nM). Quantification of expression of cTnT is shown on the graph. FIG. 9C Quantification of beating clusters in P19 cardiac cells at day 13-15 of differentiation in the presence of varying doses of hCT1. FIG. 9D Immunoblot for the cardiac markers cTnT and GATA4 in whole cell lysates from a P19 cardiac differentiation timecourse in the presence and absence of hCT1.
Protection during conditions of cardiac pathologies can be conferred not only by the activation of pro-survival/pro-angiogenic signaling pathways but also by inducing the differentiation of cardiogenic progenitor cells. […] To test the effect of CT1 on cardiomyocyte differentiation, undifferentiated cells were induced to undergo cardiac differentiation with 0.8% DMSO and aggregation. At day 0, P19 cells are plated onto non-adherent bacterial petri dishes in the presence of MEMα growth media with 0.8% DMSO (control) or in the presence of different doses of hCT1-containing MEMα media ranging from 0.5 nM (10 ng/mL) to 25 nM (500 ng/mL) with 0.8% DMSO. P19 cells are then allowed to aggregate for 4 days. Finally, aggregates are then transferred onto adherent tissue culture dishes in the same media (this time in the absence of DMSO) to allow for subsequent cardiac differentiation (FIG. 9A, adapted from Skerjanc et al. 1999; Trends in Cardiovascular Medicine, volume 9, pages 139-143). The cardiac specific marker Troponin T (cTnT) was used (by immunofluorescence) to identify differentiated cells.
Differentiation was also followed up to day 15 and the number of visually beating clusters was used to assess cardiac differentiation. […]

primary cardiomyocytes = assay: Microarray gene expression analysis of primary cardiomyocytes (Affymetrix Rat gene 2.0ST array); assay type: cell-based; conditions: 0.5 nM, 24 hours, versus non-stimulated
Experimental: FIGS. 8A and 8B. […] FIG. 8B Microarray analysis of primary cardiomyocytes stimulated with hCT1 (0.5 nM) for 24 hours.
Applicant explored the role of CT-1 as a pro-angiogenic factor in the adaptive hypertrophic response. Physiologic cardiac adaptive compensation is associated with an increase in capillary density, whereas pathologic response is characterized by a decline or no change at all. Importantly, the compensatory vascular growth/angiogenesis that occurs during physiologic adaptive compensation is permissive for the increased workload that accompanies physiologic adaptive compensation. Despite this adaptation, little information exists regarding the mechanisms that match the demand for angiogenesis to the beneficial form of myocardial growth. The rapid in vitro and in vivo adaptive compensation in response to CT-1 supports a hypothesis that the cardiomyocyte itself may act in a paracrine fashion, to signal and promote angiogenesis. To address this conjecture, Applicant examined whether CT-1 treated primary cardiomyocytes produced vascular endothelial growth factor (VEGF), an angiogenic factor known to be produced and secreted by cardiomyocytes. Primary cardiomyocytes were incubated with control serum-free media (Ctrl, SF media) or stimulated with hCT1 (0.5 nM), PE (100 μM), or PAC-1 (25 μM) for 24 hours. […]

B1: hCT1: Recombinant human CT1 protein; 201 amino acid sequence, GenBank Accession Nos AAD12173 and AAA85229 (human) (protein, UniProt Q16619 1-201, looked up)
Cardiotrophin-1: MSRREGSLEDPQTDSSVSLLPHLEAKIRQTHSLAHLLTKYAEQLLQEYVQLQGDPFGLPSFSPPRLPVAGLSAPAPSHAGLPVHERLRLDAAALAALPPLLDAVCRRQAELNPRAPRLLRRLEDAARQARALGAAVEALLAALGAANRGPRAEPPAATASAASATGVFPAKVLGLRVCGLYREWLSRTEGDLGQLLPGGSA
cardiomyocytes; H2O2 in the presence of hCT1 (FIG. 7C)
  viability improved vs. H2O2: 154%
cardiomyocytes; hCT1 0.5 nM, 1 hour H2O2 300 μM, viability at 24 hours (FIG. 7B)
  increase in viability upon pre-treatment: ~34%
P19 cells; 10 ng/mL (0.5 nM) hCT1, days 5 and 7
  GATA4 and cTnT expression (immunoblot): significantly inhibited GATA4 and cTnT expression
P19 cells; day 7, any dose 0.5 nM to 25 nM
  differentiation of cardiac cells (cTnT+/DAPI+): significantly inhibited the differentiation of cardiac cells
P19 cells; days 13, 14, and 15
  number of beating clusters: no beating clusters were detected
Primary cardiomyocytes
  VEGF increase (microarray): 1.3 fold
  angiogenic and endothelial factors (Angpt14, Flt4, Vwa5a) expression: robust induction
